According to PMC6191154:
pKd: −log10 of the molar value.

Biological target: labelled Vip3Aa protoxin (MST) (Bacillus thuringiensis (strain Bt9816C))
Assay: MST; 10 nM labelled Vip3Aa kept constant, Sf-SR-C protein fragments titrated 0.3 nM to 10 μM, 20 min at RT; 25 mM Hepes pH 7.5, 150 mM NaCl, 0.05% Tween-20; 25 °C; fitted to the Hill equation; three independent experiments

Substance | pKd
GST-SR-F-2 (Sf-SR-C aa 139-320, the MAM domain) (domain or fragment) | 6.33
Sf-CCP (CCP domain of Sf-SR-C (aa 20-80) with a His-tag) (domain or fragment) | 5.66
extracellular sequence of Sf-SR-C (aa 20-558) with a glutathione-S-transferase tag (GST-SR-C-N) (domain or fragment) | 6.72
